Measured values from the RNAGym collection of RNA variant scans (doi:10.7554/elife.80360).

B1: CPEB3 Ribozyme (parent)
chain: GGGGGCCACAGCAGAAGCGUUCACGUCGCGGCCCCUGUCAGAUUCUGGUGAAUCUGCGAAUUCUGCUGU

Variants of: B1
Assay: self-cleavage, relative activity (ratio to wild type); higher = more cleavage; co-transcriptional
With GGGGGCCACAGCAGAAGCGUUCACGGCGCGGCCCCUGUCAGAUUAUGGUGAAUCUGCGAAUUCUGCUGU the self-cleavage was 0.951. GGGGGCCACAGCAGAAGCGUUCACGGCGCGGCCCCUGUCAGAUUGUGGUGAAUCUGCGAAUUCUGCUGU gave a self-cleavage of 0.87. GGGGGCCACAGCAGAAGCGUUCACGGCGCGGCCCCUGUCAGAUUCUGGUGAAUCUGCGAAUUCUGGUGU showed a self-cleavage of 0.693. With GGGGGCCACAGCAGAAGCGUUCACGGCGCGGCCCCUGUCAGAUUCUGGUGAAUCUGCGAUUUCUGCUGU the self-cleavage was 0.393. GGGGGCCACAGCAGAAGCGUUCACGGCGCGGCCCCUGUCAGAUUCUGUUGAAUCUGCGAAUUCUGCUGU showed a self-cleavage of 0.923. In the case of GGGGGCCACAGCAGAAGCGUUCACGGCGCGGCCCCUGUCAGAUUCUGGUGAAUCUGCGCAUUCUGCUGU, the self-cleavage is reported as 0.36. GGGGGCCACAGCAGAAGCGUUCACGGCGCGGCCCCUGUCAGAUUCUGGUGAAUCUGCGGAUUCUGCUGU showed a self-cleavage of 0.959. In the case of GGGGGCCACAGCAGAAGCGUUCACGGCGCCGCCCCUGUCAGAUUCUGGUGAAUCUGCGAAUUCUGCUGU, the self-cleavage is reported as 0.284. For GGGGGCCACAGCAGAAGCGUUCACGGCGCUGCCCCUGUCAGAUUCUGGUGAAUCUGCGAAUUCUGCUGU, the self-cleavage was 0.164. Work on GGGGGCCACAGCAGAAGCGUUCACGGCGCGGCCCCUGUCAGAUUCUGGUGAAUGUGCGAAUUCUGCUGU yielded a self-cleavage of 0.694. GGGGGCCACAGCAGAAGCGUUCACGGCGCGGCCCCUGUCAGAUUCUGGUGAAUUUGCGAAUUCUGCUGU showed a self-cleavage of 0.931. With GGGGGCCACAGCAGAAGCGUUCACGGCGCGGCCCCUGUCAGAUUCUGGUGAAUAUGCGAAUUCUGCUGU the self-cleavage was 0.708. For GGGGGCCACAGCAGAAGCGUUCACGGCGCGGCCCCUGUCAGAUUCUGGUGAAUCUGCGAAUUCUGCUUU, the self-cleavage was 0.968. For GGGGGCCACAGCAGAAGCGUUCACGGCGCGGCCCCUGUCAGAUUCUGGUGAAUCUGCGAAUUCUGCUAU, the self-cleavage was 1.01. For GGGGGCCACAGCAGAAGCGUUCACGGCGCGGCCCCUGUCAGAUUCUGGUGAAUCUGCGAAUUCUGCUCU, the self-cleavage was 0.932. In the case of GGGGGCCACAGCAGAAGCGUUCACGCCGCGGCCCCUGUCAGAUUCUGGUGAAUCUGCGAAUUCUGCCGU, the self-cleavage is reported as 0.968. For GGGGGCCACAGCAGAAGCGUUCACGCCGCGGCCCCUGUCAGAUUCUGGUGAAUCUGCGAAUUCUGCGGU, the self-cleavage was 0.945. Work on GGGGGCCACAGCAGAAGCGUUCACGCCGCGGCCCCUGUCAGAUUCUGGUGAAUCUGCGAAUUCUGCAGU yielded a self-cleavage of 1.01. For GGGGGCCACAGCAGAAGCGUUCACGGCCCGGCCCCUGUCAGAUUCUGGUGAAUCUGCGAAUUCUGCUGU, the self-cleavage was 0.133. GGGGGCCACAGCAGAAGCGUUCACGGCGCGGCCCCUGUCAGAUUCUGGUGAAUCUGCGAAUUCUGCUGU gave a self-cleavage of 0.924. GGGGGCCACAGCAGAAGCGUUCACGGCGCGGCCCCUGGCAGAUUCUGGUGAAUCUGCGAAUUCUGCUGU showed a self-cleavage of 0.171. Variant GGGGGCCACAGCAGAAGCGUUCACGGCGCGGCCCCUGACAGAUUCUGGUGAAUCUGCGAAUUCUGCUGU has a self-cleavage of 0.375. GGGGGCCACAGCAGAAGCGUUCACGGCGCGGCCCCUGCCAGAUUCUGGUGAAUCUGCGAAUUCUGCUGU gave a self-cleavage of 0.664. In the case of GGGGGCCACAGCAGAAGCGUUCACGGCGCGGCCUCUGUCAGAUUCUGGUGAAUCUGCGAAUUCUGCUGU, the self-cleavage is reported as 0.95. Work on GGGGGCCACAGCAGAAGCGUUCACGGCGCGGCCGCUGUCAGAUUCUGGUGAAUCUGCGAAUUCUGCUGU yielded a self-cleavage of 0.409. Variant GGGGGCCACAGCAGAAGCGUUCACGGCGCGGGCCCUGUCAGAUUCUGGUGAAUCUGCGAAUUCUGCUGU has a self-cleavage of 0.234. With GGGGGCCACAGCAGAAGCGUUCACGGCGCGGACCCUGUCAGAUUCUGGUGAAUCUGCGAAUUCUGCUGU the self-cleavage was 0.552. GGGGGCCACAGCAGAAGCGUUCACGGCGCGGCCCCUGUCAGAUUCUGGUGCAUCUGCGAAUUCUGCUGU showed a self-cleavage of 0.838. GGGGGCCACAGCAGAAGCGUUCACGGCGCGGCCCCUGUCAGAUUCUGGUGUAUCUGCGAAUUCUGCUGU showed a self-cleavage of 0.871. GGGGGCCACAGCAGAAGCGUUCACGGCGCGGCCCCUGUCAGAUUCUGGUGGAUCUGCGAAUUCUGCUGU showed a self-cleavage of 0.787. Work on GGGGGCCACAGCAGAAGCGUUCACGGCGCGGCACCUGUCAGAUUCUGGUGAAUCUGCGAAUUCUGCUGU yielded a self-cleavage of 0.827. With GGGGGCCACAGCAGAAGCGUUCACGGCGCGGCUCCUGUCAGAUUCUGGUGAAUCUGCGAAUUCUGCUGU the self-cleavage was 0.833. For GGGGGCCACAGCAGAAGCGUUCACGGCGCGGCGCCUGUCAGAUUCUGGUGAAUCUGCGAAUUCUGCUGU, the self-cleavage was 0.437. For GGGGGCCACAGCAGAAGCGUUCACGGCGCGGCCCCUGUCAGAUUCUGGUGAAUCUGAGAAUUCUGCUGU, the self-cleavage was 0.339. GGGGGCCACAGCAGAAGCGUUCACGGCGCGGCCCCUGUCAGAUUCUGGUGAAUCUGGGAAUUCUGCUGU gave a self-cleavage of 0.172. Work on GGGGGCCACAGCAGAAGCGUUCACGGCGUGGCCCCUGUCAGAUUCUGGUGAAUCUGCGAAUUCUGCUGU yielded a self-cleavage of 0.318. With GGGGGCCACAGCAGAAGCGUUCACGGCGGGGCCCCUGUCAGAUUCUGGUGAAUCUGCGAAUUCUGCUGU the self-cleavage was 0.414. GGGGGCCACAGCAGAAGCGUUCACGGCGCGGCCCCUGUCAGAUUCUCGUGAAUCUGCGAAUUCUGCUGU showed a self-cleavage of 0.965. GGGGGCCACAGCAGAAGCGUUCACGCCGCGGCCCCUGUCAGAUUCUGGUGAAUCUGCGAAUUCGGCUGU gave a self-cleavage of 0.752. GGGGGCCACAGCAGAAGCGUUCACGGCGCGGCCCCUGUCAGAGUCUGGUGAAUCUGCGAAUUCUGCUGU showed a self-cleavage of 0.801. Work on GGGGGCCACAGCAGAAGCGUUCACGGCGCGGCCCCUGUCAGACUCUGGUGAAUCUGCGAAUUCUGCUGU yielded a self-cleavage of 0.863. GGGGGCCACAGCAGAAGCGUUCACGGCGCGGCCCCUGUCAGAAUCUGGUGAAUCUGCGAAUUCUGCUGU showed a self-cleavage of 0.766. In the case of GGGGGCCACAGCAGAAGCGUUCACGGCGCGGCCCCGGUCAGAUUCUGGUGAAUCUGCGAAUUCUGCUGU, the self-cleavage is reported as 0.198. Work on GGGGGCCACAGCAGAAGCGUUCACGGCGCGGCCCCCGUCAGAUUCUGGUGAAUCUGCGAAUUCUGCUGU yielded a self-cleavage of 0.42. Variant GGGGGCCACAGCAGAAGCGUUCACGGUGCGGCCCCUGUCAGAUUCUGGUGAAUCUGCGAAUUCUGCUGU has a self-cleavage of 0.605. For GGGGGCCACAGCAGAAGCGUUCACGGGGCGGCCCCUGUCAGAUUCUGGUGAAUCUGCGAAUUCUGCUGU, the self-cleavage was 0.34. GGGGGCCACAGCAGAAGCGUUCACGGCGCGGCCCCUGUCAGUUUCUGGUGAAUCUGCGAAUUCUGCUGU gave a self-cleavage of 0.828. With GGGGGCCACAGCAGAAGCGUUCACGGCGCGGCCCCUGUCAGCUUCUGGUGAAUCUGCGAAUUCUGCUGU the self-cleavage was 0.86. GGGGGCCACAGCAGAAGCGUUCACGGCGCGGCCCCUGUCAGAUUCUGGUCAAUCUGCGAAUUCUGCUGU gave a self-cleavage of 0.962. For GGGGGCCACAGCAGAAGCGUUCACGGCGCGGCCCCUGUCAGAUUCUGGUAAAUCUGCGAAUUCUGCUGU, the self-cleavage was 0.927. Variant GGGGGCCACAGCAGAAGCGUUCACGGCGCGGCCCCUGUCAGAUUCUGGUUAAUCUGCGAAUUCUGCUGU has a self-cleavage of 0.928. GGGGGCCACAGCAGAAGCGUUCACGGCGCGGCCCCUGUCAGAUUCUGGUGAAUCUCCGAAUUCUGCUGU gave a self-cleavage of 0.356. With GGGGGCCACAGCAGAAGCGUUCACGGCGCGGCCCCUGUCAGAUUCUGGUGAAUCUUCGAAUUCUGCUGU the self-cleavage was 0.814. GGGGGCCACAGCAGAAGCGUUCACGGCGCGGCCCCUGUCAGAUUCUGGUGAAUCUACGAAUUCUGCUGU showed a self-cleavage of 0.729. Variant GGGGGCCACAGCAGAAGCGUUCACGGCGCGGCCCCUGUCAGAUUCUGGUGAAUCUGCAAAUUCUGCUGU has a self-cleavage of 0.557. GGGGGCCACAGCAGAAGCGUUCACGGCGCGGCCCCUGUCAGAUUCUGGUGAAUCUGCUAAUUCUGCUGU gave a self-cleavage of 0.87. GGGGGCCACAGCAGAAGCGUUCACGGCGCGGCCCCUUUCAGAUUCUGGUGAAUCUGCGAAUUCUGCUGU showed a self-cleavage of 0.185. GGGGGCCACAGCAGAAGCGUUCACGGCGCGGCCCCUAUCAGAUUCUGGUGAAUCUGCGAAUUCUGCUGU gave a self-cleavage of 0.21. Work on GGGGGCCACAGCAGAAGCGUUCACGGCGCGGCCCCUGUCAGAUUCUGGUGAGUCUGCGAAUUCUGCUGU yielded a self-cleavage of 0.914. With GGGGGCCACAGCAGAAGCGUUCACGGCGCGGCCCCUGUCAGAUUCUGGUGACUCUGCGAAUUCUGCUGU the self-cleavage was 0.912. In the case of GGGGGCCACAGCAGAAGCGUUCACGGCGCGGCCCCUGUCAGAUUCUGGUGAUUCUGCGAAUUCUGCUGU, the self-cleavage is reported as 0.868. Variant GGGGGCCACAGCAGAAGCGUUCACGGCGCGGCCCCUGUCUGAUUCUGGUGAAUCUGCGAAUUCUGCUGU has a self-cleavage of 0.602. GGGGGCCACAGCAGAAGCGUUCACGGCGCGGCCCCUGUCGGAUUCUGGUGAAUCUGCGAAUUCUGCUGU gave a self-cleavage of 0.75. Work on GGGGGCCACAGCAGAAGCGUUCACGGCGCGGCCCCUGUCCGAUUCUGGUGAAUCUGCGAAUUCUGCUGU yielded a self-cleavage of 0.395. GGGGGCCACAGCAGAAGCGUUCACGGCGCGGCCCCUGUAAGAUUCUGGUGAAUCUGCGAAUUCUGCUGU gave a self-cleavage of 0.406. For GGGGGCCACAGCAGAAGCGUUCACGGCGCGGCCCCUGUUAGAUUCUGGUGAAUCUGCGAAUUCUGCUGU, the self-cleavage was 0.731. GGGGGCCACAGCAGAAGCGUUCACGGCGCGGCCCCUGUGAGAUUCUGGUGAAUCUGCGAAUUCUGCUGU showed a self-cleavage of 0.756. Work on GGGGGCCACAGCAGAAGCGUUCACGGCGCGGCCCCUGUCAGAUUCUGGUGAAUCUGCGAAUUAUGCUGU yielded a self-cleavage of 0.581. GGGGGCCACAGCAGAAGCGUUCACGGCGCGGCCCCUGUCAGAUUCUGGUGAAUCUGCGAAUUUUGCUGU gave a self-cleavage of 0.893. In the case of GGGGGCCACAGCAGAAGCGUUCACGGCGCGACCCCUGUCAGAUUCUGGUGAAUCUGCGAAUUCUGCUGU, the self-cleavage is reported as 0.555. Variant GGGGGCCACAGCAGAAGCGUUCACGGCGCGGCCCCUGUCACAUUCUGGUGAAUCUGCGAAUUCUGCUGU has a self-cleavage of 0.561. In the case of GGGGGCCACAGCAGAAGCGUUCACGGCGCGGCCCCUGUCAAAUUCUGGUGAAUCUGCGAAUUCUGCUGU, the self-cleavage is reported as 0.539. GGGGGCCACAGCAGAAGCGUUCACGGCGCGGCCCAUGUCAGAUUCUGGUGAAUCUGCGAAUUCUGCUGU showed a self-cleavage of 0.184. With GGGGGCCACAGCAGAAGCGUUCACGGCGCGGCCCGUGUCAGAUUCUGGUGAAUCUGCGAAUUCUGCUGU the self-cleavage was 0.241. Variant GGGGGCCACAGCAGAAGCGUUCACGCCGCGGCCCCUGUCAGAUUCUGGUGAAUCUGCGAAUUCUGCUGA has a self-cleavage of 1.01. With GGGGGCCACAGCAGAAGCGUUCACGCCGCGGCCCCUGUCAGAUUCUGGUGAAUCUGCGAAUUCUGCUGC the self-cleavage was 1.06. GGGGGCCACAGCAGAAGCGUUCACGGCGCGGCCCCUGUCAGAUUCUGGUGAAUCUGCGAAUUCUCCUGU showed a self-cleavage of 0.646. GGGGGCCACAGCAGAAGCGUUCACGGCGCGGCCCCUGUCAGAUUCUGGUGAAUCUGCGAAUUCUACUGU showed a self-cleavage of 0.643.
